Source: patent publication US11897966 (UTC THERAPEUTICS SHANGHAI, dated 2024)
Each block holds one binder with its values, some of them ahead of it.

Assays:
[1] = target: T1, mesothelin-Fc recombinant protein (human, UniProt Q13421 296-580, limits assumed); experiment: FACS of T cells expressing the scFv CAR, stained with Mesothelin-Fc + PE-anti-IgG-Fc; Mock T cells of the same block: 0.97
T1 construct: also called mesothelin-Fc protein; human Mesothelin-Fc; not shown: Fc part

[2] = target: T1, mesothelin-Fc recombinant protein; experiment: FACS of T cells expressing the scFv CAR, stained with Mesothelin-Fc + PE-anti-IgG-Fc; Mock T cells of the same block: 0.63

T1 sequence (Q13421 other isoform, or with tags, fused parts or gaps limits assumed): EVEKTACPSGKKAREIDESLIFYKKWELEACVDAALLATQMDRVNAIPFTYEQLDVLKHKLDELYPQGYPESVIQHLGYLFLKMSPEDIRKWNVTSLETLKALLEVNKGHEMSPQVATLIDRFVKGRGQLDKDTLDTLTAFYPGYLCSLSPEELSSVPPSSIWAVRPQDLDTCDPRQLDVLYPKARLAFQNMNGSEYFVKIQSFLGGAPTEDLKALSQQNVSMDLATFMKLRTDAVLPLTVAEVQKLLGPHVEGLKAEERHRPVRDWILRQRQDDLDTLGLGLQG

number in the Mesothelin-Fc positive gate (percent of cells, unit not given) [1]: 82.8
B1: anti-mesothelin scFv-M28 (scFv)
chain: QSALTQPPSASGSPGQSVTISCSGTSSDVGGYNFVSWYQHHPGKAPKLMIYEVSKRPSGVPDRFSGSKSGNTASLTVSGLQAEDEADYYCSSYAGRNNPYLFGTGTKLTVLGGGGSGGGGSGGGGSQLQLQESGAEVKKPGSSVKVSCKASGGTFSSYAISWVRQAPGQGLEWMGGIIPIFGTANYAQKFQGRVTITADESTSTAYMELSSLRSEDTAVYYCARDLGGYSYGHGLDYWGQGTLVTVSS

number in the Mesothelin-Fc positive gate (percent of cells, unit not given) [2]: 80.8
B2: anti-mesothelin scFv-M8 (scFv)
chain: DIQLTQSPSSLSASVGDRVTITCRASQSISSSLNWYQQKPGKAPKLLIYAASSLQSGVPSRFSGSGSGTDFTLTISSLQPEDFATYSCQQSYSTPLTFGGGTKVEIKGGGGSGGGGSGGGGSQVHLVESGGGVVQPGRSLRVSCAASGFTFSGYAMYWVRQAPGKGLEYVSAITTNGGSTNYADSVKGRFTISRDNSKNTLYLQMSSLRAGDTAVYYCARGAPGYRGYYMDVWGKGTTVTVSS

number in the Mesothelin-Fc positive gate (percent of cells, unit not given) [1]: 80
B3: anti-mesothelin scFv-M22 (scFv)
chain: QSALTQPASVSGSPGQSITLSCTGTRRDIGGYEYVSWYQQHPGKAPKLLIFSVNNRPSGVSHRFSGSKSGNTASLTISGLQAEDEAAYFCSSYSSRDTLVLFGGGTKLTVLGGGGSGGGGSGGGGSQVQLVQSGAEVKKPGSSVKVSCKASGGTFSSYAISWVRQAPGQGLEWMGGIIPIFGTANYAQKFQGRVTITADESTSTAYMELSSLRSEDTAVYYCASGRSGSYGLYWGQGTLVTVSS

number in the Mesothelin-Fc positive gate (percent of cells, unit not given) [1]: 67.9
B4: anti-mesothelin scFv-M31 (scFv)
chain: QSALTQPPSASGSPGQSVTISCTGTSSDIGGYNSVSWYQQHPGKAPKLIIYGVSRRPSGVPDRFSGSKSANTASLTVSGLQAVDEADYYCSSYGGSNNLLFGGGTKLTVLGGGGSGGGGSGGGGSEVHLVESGGGLAQPGGSLRLSCAASGFSFSSSWMAWVRQAPGKGLEWVANIKQDGSSQYYVDSVKGRFTISRDNAKNSLSLQMNSLRAEDTAVYYCARDIWYSIDYWGQGTLVTVSS

number in the Mesothelin-Fc positive gate (percent of cells, unit not given) [2]: 83.4
B5: anti-mesothelin scFv-M6 (scFv)
chain: EIVMTQSPATLSLSPGERATLSCRASQSIGNSLAWYQQKPGQAPRLLIYDVSNRATGIPARFSGSGSGTDFTLTISSLEPEDFAVYYCQHRYSWPLTFGGGTKVEIKGGGGSGGGGSGGGGSQVQLVQSGGGLVKPGGSLRLSCAASGFTFSDYYMSWIRQAPGKGLEWVSYISSSGSTIYYADSVKGRFTISRDNAKNSLYLQMNSLRAEDTAVYYCARDGYRTHNWFDPWGQGTLVTVSS

number in the Mesothelin-Fc positive gate (percent of cells, unit not given) [2]: 36.3
B6: anti-mesothelin scFv-M7 (scFv)
chain: DIRLTQSPSSLSASLGDRVTITCRASQAISSALAWYQQKPGKAPRLLIYDASTLESGVPSRFSGSGSGTDFTLTISSLQPEDFATYYCQQADSFPLTFGGGTKLEIKGGGGSGGGGSGGGGSQVQLVQSGAEVKKSGESLKISCKGSGYGFGAYWIAWVRQMPGKGLEWMGIIYPGDSRVIYSPYFQGQVTISADKSISTAYLQWSSLKASDTAMYYCARFGGPKFATNWFDIWGQGTTVTVSS

number in the Mesothelin-Fc positive gate (percent of cells, unit not given) [2]: 48.8
B7: anti-mesothelin scFv-M15 (scFv)
chain: DIQLTQSPSSLSASIGDRVTITCRASQGVNSALAWYQQKPGKPPNLLIYDASSLESGVPSRFSGSGSGRDFTLTISSLQPEDFATYYCQQFSSYPLTFGGGTKVDIKGGGGSGGGGSGGGGSQVQLVQSGAEVKKPGASVKVSCKASGYTFTSYYMHWVRQAPGQGLEWMGIINPSGGSTSYAQKFQGRVTMTRDTSTSTVYMELSSLRSEDTAVYYCARAQRGGSVYFDYWGQGTLVTVSS

number in the Mesothelin-Fc positive gate (percent of cells, unit not given) [1]: 74.2
B8: anti-mesothelin scFv-M37 (scFv)
chain: DIVMTQTPSSLSASVGDRVTITCRASQGISNYLAWFQQKPGKAPKPLIYAASSLQSGVPSKFSGSGSGTDFTLTISNLQPEDFATYICQQYSSYPITFGQGTRLEIKGGGGSGGGGSGGGGSQLQLQESGPGLVKPSETLSLTCAVSGGSISPYYWTWIRQSPGKAMEWMGYIHYSGRTNYNPSLESRATFSVDTSKNQISLKLNSVTAADTAVYYCTKVGDPGLFDYWGPGTLVTVSS

number in the Mesothelin-Fc positive gate (percent of cells, unit not given) [1]: 75.6
B9: anti-mesothelin scFv-M20 (scFv)
chain: AIQMTQSPSSLSASVGNRVTITCRASQGISSAVAWYQQKPGKPPKLLISYASSLESGVPSRFSGSGSGTDFSLTISSLQPEDFATYFCQQFNSYPLTFGGGTKVEIKGGGGSGGGGSGGGGSQVQLVQSGAEVRKPGESLKISCKGSGYSFRDSWIAWVRQMPGQGLEWMGIIFPGDSNPIYSPSFQGQVTISADTSISTTFLQWRSLKASDSAIYYCARHAAWGAGWFDPWGQGTLVTVSS

number in the Mesothelin-Fc positive gate (percent of cells, unit not given) [1]: 84.1
B10: anti-mesothelin scFv-M32 (scFv)
chain: DIRMTQSPSSLSASVGDRVTVTCQASEDINNSLNWYQQKPGKAPQLLIYDASDLETGVPSRFSGRGSGRDFTLTISSLQPEDFATYYCQQLNSYPLTFGGGTKLEIKGGGGSGGGGSGGGGSQVQLVQSGAEVKKPGASVKVSCKASGFTFIGYYLHWVRQAPGQGLEWMGIINPSGGRTSMAQKFQGRVSMTTDTSTGTVYLDLGRLGSDDTAVYYCARADNWNAGSMDVWGNGTTVTVSS

number in the Mesothelin-Fc positive gate (percent of cells, unit not given) [2]: 9.53
B11: M18 (scFv)
chain 1: QVQLVQSGGGLVQPGGSLRLSCAASGFTFSSYWMHWVRQAPGKGLVWVSRINSDGSSTSYADSVKGRFTISRDNAKNTLYLQMNSLRAEDTAVYYCVRTGWVGSYYYYMDVWGKGTTVTVSS
chain 2: EIVLTQSPGTLSLSPGERATLSCRASQSVSSNYLAWYQQKPGQPPRLLIYDVSTRATGIPARFSGGGSGTDFTLTISSLEPEDFAVYYCQQRSNWPPWTFGQGTKVEIK

number in the Mesothelin-Fc positive gate (percent of cells, unit not given) [2]: 71.1
B12: anti-mesothelin scFv-M13 (scFv)
chain: AIRMTQSPSSLSASVGDRVTITCRASQGISNSLAWYQQKPGKAPKLLLYAASRLESGVPSRFSGSGSGTDYTLTISSLQPEDFATYYCQQYYSTPFTFGPGTKLEIKGGGGSGGGGSGGGGSQVQLVQSGAEVKKPGSSVKVSCKTSADTFSANTINWVRQAPGHGLEWMGRIIPSLNIRDYAQEFQGRVTFTADESTNTVYMQLTSLRSEDTAVYYCARDPGSTWSPNQFFPHWGQGTLVTVSS

number in the Mesothelin-Fc positive gate (percent of cells, unit not given) [1]: 76.3
B13: anti-mesothelin scFv-M27 (scFv)
chain: EIVLTQSPGTLSLSPGERATLSCRASQPIVASHLAWYQHKPGQAPRLLIYGASTRAAGIPDRFSGSGSGTDFTLTISRLEPEDFAVYFCQQYGISPFTFGPGTKVDIKGGGGSGGGGSGGGGSQVQLVQSGAEVKKPGESLKISCQGSGYSFTDYWIGWVRQAPGQGLEWMGWITPNNGNTNYAPKFQGRVTLTTDTSTSTAYMELRSLTSDDTAVYFCARRGRNSSGYLYYYSMDVWGQGTTVTVSS

number in the Mesothelin-Fc positive gate (percent of cells, unit not given) [1]: 93.6
B14: anti-mesothelin scFv-M24 (scFv)
chain: QPVLTQPPSASGTPGQRVTISCSGSSSNIGSNYVYWYQQFPGTAPKLLIYMNNQRPSGVPDRFSGSKSGTSASLAISGLRSEDEADYYCAARDDSLSGYVTFGGGTKLTVLGGGGSGGGGSGGGGSEVHLVESGGGLVQPGGSLRLSCAASGFTFSSYAMSWVRQAPGKGLEWVSAISGSGGSTYYADSVKGRFTISRDNSKNTLYLQMNSLKTEDTAVYYCTRGVATFDYWGQGTLVTVSS
